Patent US20220406376A1 (MacroGenics, published 2022)
Where a chain is given by its changes, count along the chain named.

B1: HER2 MAB-1 (antibody, V domains shown)
VH: EVQLQESGPELKKPGETVKISCKASGYTFTNYGMNWVKQAPGKGLKWMGWINTNIGEPTYTEEFKGRFAFSLGTSASTAFLQINNLKNEDTATYFCARDDGYGNRVSYWGQGTLVTVSA
VL: DILMTQSPLSMYTSLGERVTITCKASQDINSYLSWFQQKPGKSPKTLIYRANRLVDGVPSRFSGSGSGQDYSLTISSLEYEDMGIYYCLQHDEFPWTFGGGTKLEIK
notes: also called 8H11
B2: DART-C (bispecific antibody)
chain 1: not shown
chain 2: DIQMTQSPSSLSASVGDRVTITCKASQDISNYLSWFQQKPGKAPKTLIYRANRLQSGVPSRFSGSGSGTDFTLTISSLQPEDFATYYCLQHDEFPWTFGQGTKLEIKGGGSGGGGQVQLVQSGAEVKKPGASVKVSCKASGYTFTSYWINWVKQAPGQGLEWIGNIYPSDSYTNYNQKFKDKATITADKSTSTAYMELSSLRSEDTAVYYCTRDYGSSYSFDYWGQGTTVTVSSGGCGGGKVAACKEKVAALKEKVAALKEKVAALKE
B3: TRIDENT-2 (other)
chain 1: DIQMTQSPSTLSASVGDRVTITCRASQSVGYMHWYQQKPGKAPKLLIYDTSKLASGVPSRFSGSGSGTEFTLTISSLQPDDFATYYCFQGSGYPFTFGGGTKLEIKGGGSGGGGEVKLDETGGGLVQPGRPMKLSCVASGFTFSDYWMNWVRQSPEKGLEWVAQIRNKPYNYETYYSDSVKGRFTISRDDSKSSVYLQMNNLRVEDMGIYYCTGSYYGMDYWGQGTSVTVSSASTKGEVAACEKEVAALEKEVAALEKEVAALEKGGGDKTHTCPPCPAPEAAGGPSVFLFPPKPKDTLMISRTPEVTCVVVDVSHEDPEVKFNWYVDGVEVHNAKTKPREEQYNSTYRVVSVLTVLHQDWLNGKEYKCKVSNKALPAPIEKTISKAKGQPREPQVYTLPPSREEMTKNQVSLWCLVKGFYPSDIAVEWESNGQPENNYKTTPPVLDSDGSFFLYSKLTVDKSRWQQGNVFSCSVMHEALHNHYTQKSLSLSPGK
chain 2: DVVMTQTPFSLPVSLGDQASISCRSSQSLVHSNGNTYLRWYLQKPGQSPKVLIYKVSNRFSGVPDRFSGSGSGTDFTLKISRVEAEDLGVYFCSQSTHVPWTFGGGTKLEIKGGGSGGGGQVTLRESGPALVKPTQTLTLTCTFSGFSLSTSGMSVGWIRQPPGKALEWLADIWWDDKKDYNPSLKSRLTISKDTSKNQVVLKVTNMDPADTATYYCARSMITNWYFDVWGAGTTVTVSSASTKGKVAACKEKVAALKEKVAALKEKVAALKE
heavy: QVQLVQSGAEVKKPGASVKVSCKASGYTFTNYGMNWVRQAPGQGLEWMGWINTNIGEPTYTEEFKGRVTMTRDTSISTAYMELSRLRSDDTAVYYCARDDGYGNRVSYWGQGTLVTVSSASTKGPSVFPLAPSSKSTSGGTAALGCLVKDYFPEPVTVSWNSGALTSGVHTFPAVLQSSGLYSLSSVVTVPSSSLGTQTYICNVNHKPSNTKVDKRVEPKSCDKTHTCPPCPAPEAAGGPSVFLFPPKPKDTLMISRTPEVTCVVVDVSHEDPEVKFNWYVDGVEVHNAKTKPREEQYNSTYRVVSVLTVLHQDWLNGKEYKCKVSNKALPAPIEKTISKAKGQPREPQVYTLPPSREEMTKNQVSLSCAVKGFYPSDIAVEWESNGQPENNYKTTPPVLDSDGSFFLVSKLTVDKSRWQQGNVFSCSVMHEALHNRYTQKSLSLSPGK
light: DIQMTQSPSSLSASVGDRVTITCKASQDISNYLSWFQQKPGKAPKTLIYRANRLQSGVPSRFSGSGSGTDFTLTISSLQPEDFATYYCLQHDEFPWTFGQGTKLEIKRTVAAPSVFIFPPSDEQLKSGTASVVCLLNNFYPREAKVQWKVDNALQSGNSQESVTEQDSKDSTYSLSSTLTLSKADYEKHKVYACEVTHQGLSSPVTKSFNRGEC
notes: also called RSV×FITC×HER2 control molecule; TA×FITC×RSV control molecule
B4: hCD137 MAB-3 (1B.4) (antibody, V domains shown)
VH: QVQLVQSGAEVKKPGASVKVSCKASGYTFTSYWINWVKQAPGQGLEWIGNIYPSDSYTNYNQKFKDKATITADKSTSTAYMELSSLRSEDTAVYYCTRDYGSAYSMSTWGQGTTVTVSS
VL: DIQMTQSPSSLSASVGDRVTITCQASQDISNYLNWYQQKPDKTVKLLIYYTSRLRSGVPSRFSGSGSGTDFTFTISSLQPEDIATYFCQQGDTLPYTFGQGTKLEIK
B5: hCD137 MAB-3 (1G.7) (antibody, V domains shown)
VH: B4 VH with K38R, I48A
VL: B4 VL with V44A
B6: hCD137 MAB-3 (1E.3) (antibody, V domains shown)
VH: B4 VH with K38R
VL: B4 VL with Q24R, A25P
B7: hCD137 MAB-3 (1G.8) (antibody, V domains shown)
VH: B4 VH with K38R, I48A
VL: B4 VL with V44A, L54A
B8: hCD137 MAB-3 (1B.13) (antibody, V domains shown)
VH: B4 VH
VL: B4 VL with Q24R, A25P, I48A, S52G
B9: hCD137 MAB-3 (1G.14) (antibody, V domains shown)
VH: B4 VH with K38R, I48A
VL: B4 VL with S52T, L54A
B10: hCD137 MAB-3 (1F.3) (antibody, V domains shown)
VH: B4 VH with I48A
VL: B4 VL with Q24R, A25P
B11: hCD137 MAB-3 (1E.14) (antibody, V domains shown)
VH: B4 VH with K38R
VL: B4 VL with S52T, L54A
B12: hCD137 MAB-3 (1B.11) (antibody, V domains shown)
VH: B4 VH
VL: B4 VL with Q24R, A25P, S52G
B13: hCD137 MAB-3 (1B.10) (antibody, V domains shown)
VH: B4 VH
VL: B4 VL with Q24R, A25P, S52T
B14: hCD137 MAB-3 (1G.4) (antibody, V domains shown)
VH: B4 VH with K38R, I48A
VL: B4 VL
B15: hCD137 MAB-3 (1B.5) (antibody, V domains shown)
VH: B4 VH
VL: B4 VL with Q24R, A25P, V44A
B16: hCD137 MAB-3 (1B.6) (antibody, V domains shown)
VH: B4 VH
VL: B4 VL with Q24R, A25P, L54A
B17: hCD137 MAB-3 (1E.9) (antibody, V domains shown)
VH: B4 VH with K38R
VL: B4 VL with L54A
B18: hCD137 MAB-3 (1E.4) (antibody, V domains shown)
VH: B4 VH with K38R
VL: B4 VL
B19: hHER2 MAB-1 (1.2) (antibody, V domains shown)
VH: QVQLVQSGAEVKKPGASVKVSCKASGYTFTNYGMNWVRQAPGQGLEWMGWINTNIGEPTYTEEFKGRVTMTRDTSISTAYMELSRLRSDDTAVYYCARDDGYGNRVSYWGQGTLVTVSS
VL: DIQMTQSPSSLSASVGDRVTITCKASQDINTYLSWFQQKPGKAPKTLIYRANRLVEGVPSRFSGSGSGTDFTLTISSLQPEDFATYYCLQHDEFPWTFGQGTKLEIK
B20: hHER2 MAB-1 (1.3) (antibody, V domains shown)
VH: B19 VH
VL: B19 VL with N30S, T31N, V55Q, E56S

Legend:
[1] = biological target: T1, extracellular portion of human HER2 fused to a histidine-containing peptide (human, UniProt P04626 23-652); assay: SPR (BIACORE); antibody captured on anti-human Fc; huHER2 6.25-50 nM; 1:1 Langmuir
T1 construct: extracellular domain; also called huHER2; Human HER2/neu
Description: The humanized variants were selected to have improved binding affinity as compared to the parental murine antibody and as described may be further engineered to eliminate sequence liabilities (e.g., isomerization, deamidation sites) as described above. The binding affinity of several combinations of humanized VH and VL domains was examined by BIACORE®. Thus, an extracellular portion of human HER2 fused to a histidine-containing peptide (“huHER2”) was passed over a surface coated with immobilized antibody. Briefly, each test molecule was captured onto an F(ab)₂ goat-anti-human Fc-coated surface and then incubated in the presence of different concentrations (6.25 nM-50 nM) of huHER2. The kinetics of binding were determined via BIACORE® analysis binding (normalized 1:1 Langmuir binding model).

[2] = biological target: T2, HER2/neu on the surface of target cells (N87, JIMT-1, MCF-7, MDA-MB231) (UniProt P04626 23-1255, limits assumed); assay: flow cytometry on N87 gastric cancer cells, anti-hFc APC MFI
T2 construct: whole, on cells

[3] = biological target: T3, CD137 on the surface of cells (activated human T cells; engineered CHO cells) (human, UniProt Q07011 24-255); assay: flow cytometry on activated pan T cells gated CD8, anti-hFc APC MFI
T3 construct: whole, on cells; also called human CD137; cell surface expressed CD137
T3 sequence (Q07011 24-255, change not shown): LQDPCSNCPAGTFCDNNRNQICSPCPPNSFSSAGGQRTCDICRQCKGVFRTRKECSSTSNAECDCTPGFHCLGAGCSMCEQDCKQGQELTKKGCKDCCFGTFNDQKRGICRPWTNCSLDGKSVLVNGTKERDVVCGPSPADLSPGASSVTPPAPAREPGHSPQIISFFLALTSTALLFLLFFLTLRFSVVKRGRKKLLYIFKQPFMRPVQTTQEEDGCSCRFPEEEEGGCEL

[4] = biological target: T2, HER2/neu on the surface of target cells …; assay: flow cytometry on N87 cells, anti-hFc APC MFI
[5] = biological target: T2, HER2/neu on the surface of target cells …; assay: flow cytometry on MCF-7 cells, anti-hFc APC MFI
[6] = biological target: T2, HER2/neu on the surface of target cells …; assay: flow cytometry on JIMT-1 cells, anti-hFc APC MFI
[7] = biological target: T4, extracellular portion of human CD137 fused to a histidine-containing peptide (human, UniProt Q07011 24-186); assay: Attana Cell A200 QCM; antibody captured by anti-human IgG Fc; soluble human CD137-His; grade relative to (1B.3)
T4 construct: extracellular domain; also called huCD137; His-tagged soluble human CD137

Binder	binding result [7]	also measured
B1		Kd [1]: 1.27 nM; koff [1]: 0.000654 s⁻¹; kon [1]: 510000 M⁻¹ s⁻¹
B2		EC50 (read off the curve) [2]: ~0.5 nM; EC50 (read off the curve) [3]: ~0.1 nM
B3		EC50 (read off the curve) [4]: ~1 nM; EC50 (read off the curve) [5]: ~0.2 nM; EC50 (read off the curve) [6]: ~0.7 nM
B4	binds	
B5	binds	
B6	binds	
B7	binds	
B8	binds	
B9	binds	
B10	binds	
B11	binds	
B12	binds	
B13	binds	
B14	binds	
B15	binds	
B16	binds	
B17	binds	
B18	binds	
B19		Kd [1]: 0.45 nM; koff [1]: 0.00028 s⁻¹; kon [1]: 620000 M⁻¹ s⁻¹
B20		Kd [1]: 0.36 nM; koff [1]: 0.000223 s⁻¹; kon [1]: 618000 M⁻¹ s⁻¹
